What was measured:
ANXA2 heterotetramer = target: T1, ANXA2 heterotetramer (Homo sapiens, UniProt P07355); assay: L2108-120 peptide pulldown assay from Langerhans cells (silver stain, mass spectrometry, immunoblot); type: binding
T1 construct: endogenous in cells; host or cells: human monocyte-derived Langerhans cells (from PBL of healthy donors)
Method: LC were incubated with either no peptide or 50 μg/5×10^5 cells of 6×His-L2108-120 peptide and subsequently cross-linked with DTSSP. Cells were then lysed and mixed with a Ni-NTA agarose slurry overnight and ten fractions were eluted. Non-reduced eluates were electrophoresed, transferred to nitrocellulose and probed with an anti-ANXA2 antibody or an anti-6×His antibody, followed by a peroxidase-labeled secondary antibody. Antibody binding was detected with enhanced chemiluminescence.
A. LC were incubated with either no peptide or (6×)His-L2108-120 peptide and subsequently cross-linked with DTSSP. Cells were lysed and mixed with a Ni-NTA agarose slurry and eluted. Reduced eluate 5 was electrophoresed and silver stained. The unique band right above ˜39 kDa was isolated and analyzed by mass spectrometry. One representative experiment of two is shown. B. LC were incubated with either no peptide or (6×)His-L2108-120 peptide and subsequently cross-linked with DTSSP. Cells were then lysed and mixed with a Ni-NTA agarose slurry overnight and eluted. Eluates were then electrophoresed, transferred to nitrocellulose and probed with either an anti-ANXA2 or an anti-ANXA2 light chain antibody. […]. One representative experiment of two is shown.
L2108-120 Peptide Pulldown Assay. […] The eluates were collected and analyzed by non-reducing immunoblots and reduced silver stain gels. […]

HPV16L1L2 VLP [1] = assay: HPV16L1L2 VLP binding assay on Langerhans cells (flow cytometry, H16.V5 antibody); type: cell-based, human; settings: increasing peptide concentrations (1-100 μg)/0.5×10^6 cells, 1 h at 4° C.
Method: LC were incubated with increasing concentrations of the L2108-120 peptide and subsequently incubated with HPV16L1L2 VLP. HPV16L1L2 VLP remaining on the surface of LC were detected using a L1 specific conformational antibody (H16.V5). Binding was assessed by flow cytometry.
HPV16L1L2 VLP Binding Assay. LC were incubated with the HPV16 L2 peptide aa 108-120 ([…] SEQ ID NO: 4) (Kawana et al. (2001) J. Virol. 75: 2331-6) at varying concentrations (1-100 μg)/0.5×10^6 cells for 1 h at 4° C. Subsequently, the LC were incubated with 0.25 μg of HPV16L1L2 VLP/treatment for 1 h at 4° C. and then incubated with an anti-L1 (H16.V5) antibody (a gift from Neil Christensen, Penn State University) at a concentration of 1:25,000 for 30 min at 4° C. The cells were then incubated with biotinylated anti-mouse-IgG2b at a concentration of 1:50 for 30 min at 4° C. Next, the HPV16L1L2 VLP/anti-L1/biotin treated cells were stained with streptavidin-FITC at a concentration of 1:50 for 30 min. The cells were washed between each incubation with 135 μl FACS buffer. In control experiments, cells were left untreated or probed with either peptide/anti-L1/biotin-strepavidin-FITC or VLP/anti-L1/biotin-strepavidin-FITC. Finally, HPV16L1L2 VLP binding to LC was assessed by flow cytometry. Binding is calculated as the MFI of the sample divided by the MFI of the untreated control multiplied by 100.

HPV16L1L2 VLP [2] = assay: HPV16L1L2 VLP uptake assay in siRNA-transfected LC (flow cytometry); type: cell-based, human; settings: 6 days after transfection, VLP 15 min; compared to untreated and control siRNA treated LC
Method: (§1) FIGS. 8A & B are gel pictures showing downregulation of ANXA2 inhibits uptake of HPV16L1L2 VLP. A. LC were transfected using the Amaxa Nucleofector kit without siRNA (Untreated), with control siRNA or with two different ANXA2 siRNA sequences. The cells were incubated for 6 days before analysis of ANXA2 protein expression by immunoblot. GAPDH served as the loading control. One representative experiment of three is shown. B. LC were transfected using the Amaxa Nucleofector kit without siRNA (Untreated), with control siRNA or with ANXA2 siRNA #2. The cells were incubated for 6 days and exposed to CFDA-SE labeled HPV16L1L2 VLP for 15 min. Uptake was assessed by flow cytometry.
(§2) siRNA Inhibition of ANXA2 in LC and HPV16 VLP Uptake Assay. ANXA2 siRNA was synthesized at the USC Genomics Core (Los Angeles, Calif.) based on the sequences: ANXA2 siRNA #1 ([…])/([…]) (SEQ ID NO: 5); ANXA2 siRNA #2 ([…])/([…]) (SEQ ID NO: 6). Control siRNA was from (S76). ANXA2 or Control siRNA was transfected into LC using the Amaxa Human Dendritic Cell Nucleofector kit (Lonza) as directed by the manufacturer's instructions. The cells were incubated for 6 days before they were analyzed by an anti-ANXA2 immunoblot and used in an HPV16 VLP uptake assay. HPV VLP were labeled with CFDA-SE as described above. […] Finally, HPV16 VLP uptake by LC was assessed via flow cytometry.

ANXA2 = assay: siRNA inhibition of ANXA2 in LC, ANXA2 protein expression by immunoblot; type: cell-based, human; settings: Amaxa nucleofection
Method: as §1, §2

[3] = cited from earlier work
HPV16L1 VLP = assay: HPV16 VLP uptake assay with SLPI: uptake of CFDA-SE labeled HPV16L1 VLP by Langerhans cells (flow cytometry); type: cell-based, human; settings: SLPI 30 ug/ml (optimal concentration), VLP 15 min; Example 2
Method: (§3) LC were left untreated or incubated with 30 μg human recombinant SLPI (R&D Systems) for 1 h at 4° C. Subsequently, the cells were washed and incubated with CFDA-SE-labeled HPV16 L1 VLP or HPV16 L1L2 VLP at 37° C. After 15 min, cells were washed at 4° C., then fixed with 1% paraformaldehyde and analyzed for intracellular CFDA-SE by flow cytometry. Percent of VLP uptake was calculated using the following equation: [(MFI experimental plus SLPI)−(MFI background)/[(MFI experimental untreated cells)−(MFI background)]×100. Shown is the average uptake of 3 experiments (±SEM). *p=0.04 compared to untreated LC.
(§4) FIGS. 7A & B are charts showing that SLPI inhibits the uptake of HPV16L1L2 VLP by LC. A. LC were incubated with increasing concentrations of SLPI, then incubated with CFDA-SE labeled HPV16L1L2 VLP for 15 min. Uptake of CFDA-SE labeled HPV16L1L2 VLP by LC was assessed by flow cytometry. The mean percentage of uptake ±SEM of three separate experiments is presented (*P<0.05 by a two-tailed, paired t-test, as compared to the negative control). […] Uptake of CFDA-SE labeled HPV16 VLP by LC was assessed by flow cytometry. […]
(§5) HPV16 VLP Uptake Assay with SLPI. […] Finally, HPV16 VLP uptake by LC was assessed via flow cytometry. Percent uptake is calculated as the mean fluorescent intensity (MFI) of the sample divided by the MFI of the untreated control multiplied by 100.

HPV16L1L2 VLP [4] = assay: HPV16 VLP uptake assay with SLPI: uptake of CFDA-SE labeled HPV16L1L2 VLP by Langerhans cells (flow cytometry); type: cell-based, human
Method: as §3, §4, §5

T1 sequence (P07355 2-339 limits assumed): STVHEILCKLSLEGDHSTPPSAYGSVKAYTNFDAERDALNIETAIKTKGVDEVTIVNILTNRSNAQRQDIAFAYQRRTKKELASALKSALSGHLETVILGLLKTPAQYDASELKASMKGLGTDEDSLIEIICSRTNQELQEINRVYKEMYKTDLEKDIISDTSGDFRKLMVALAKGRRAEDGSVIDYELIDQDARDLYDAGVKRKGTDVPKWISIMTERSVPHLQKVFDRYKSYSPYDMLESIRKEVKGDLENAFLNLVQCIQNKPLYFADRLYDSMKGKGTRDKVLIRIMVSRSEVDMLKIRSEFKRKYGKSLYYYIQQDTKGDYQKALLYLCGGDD
T1 sequence (P60903 2-97 partner limits assumed): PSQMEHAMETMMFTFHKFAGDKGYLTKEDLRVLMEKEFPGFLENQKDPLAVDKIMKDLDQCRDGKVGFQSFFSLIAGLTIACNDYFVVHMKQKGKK

## LVEETSFIDAGAP (listed as Human papillomavirus) [L2108-120 peptide]
ANXA2 heterotetramer; anti-ANXA2 and anti-ANXA2 light chain antibodies
  proteins in pulldown eluates by immunoblot: both ANXA2 and ANXA2 light chain were present
HPV16L1L2 VLP [1]
  HPV16L1L2 VLP bound to the LC surface: significantly decreased numbers of HPV16L1L2 VLP bound to the LC surface

## (CGGGAUGCUUUGAACAUUGAATT)/(UUCAAUGUUCAAAGCAUCCCGTT) (chemistry not given here) [ANXA2 siRNA #2]
HPV16L1L2 VLP [2]
  uptake of HPV16L1L2 VLP into LC: significantly reduced the uptake of HPV16L1L2 VLP into LC
ANXA2
  time of optimal ANXA2 protein knockdown post-transfection: 6 days

## CCOCc1nc2c(N)nc3ccccc3c2[nH]1 [CL097]
[3]
  water solubility: ≤ 20 mg/mL

## (6×)His-L2108-120 peptide: 6×His-tagged HPV16 L2 aa 108-120 peptide used for pulldown (HHHHHHLVEETSFIDAGAP)
ANXA2 heterotetramer; 50 μg/0.5×10^6 cells, DTSSP cross-linking, elution 5
  protein pulled down from LC, unique silver-stain band identified by mass spectrometry: predicted to be annexin A2 (ANXA2)

B1: SLPI: recombinant human secretory leukocyte protease inhibitor (R&D Systems), serine protease inhibitor and ligand of ANXA2; SEQ ID NO: 2 (protein, listed as Homo sapiens)
chain: MKSSGLFPFLVLLALGTLAPWAVEGSGKSFKAGVCPPKKSAQCLRYKKPECQSDWQCPGKKRCCPDTCGIKCLDPVDTPNPTRRKPGKCPVTYGQCLMLNPPNFCEMDGQCKRDLKCCMGMCGKSCVSPVKA
HPV16L1 VLP
  internalization of HPV16L1 VLP by LC: did not inhibit HPV16L1 VLP uptake
HPV16L1L2 VLP [4]; 30 μg SLPI 1 h at 4° C., then VLP 15 min at 37° C., FIG. 2, 3 experiments
  uptake of HPV16L1L2 VLP into LC: blocks HPV16 L1L2 VLP uptake into LC
HPV16L1L2 VLP [4]; increasing concentrations (5-30 μg/ml) of SLPI, VLP 15 min, Example 2
  internalization of HPV16L1L2 VLP by LC: LC internalized decreasing amounts of HPV16L1L2 VLP

— patent US20110086044A1, “Compositions and Methods to Inhibit HPV Infection” (University of Southern California, priority 2009, published 2011)
